# Data: IntAct's records for PubMed 24012335
# B1: Serine/threonine-protein kinase LATS1 (Homo sapiens), O95835 (parent)
# chain: MKRSEKPEGYRQMRPKTFPASNYTVSSRQMLQEIRESLRNLSKPSDAAKAEHNMSKMSTEDPRQVRNPPKFGTHHKALQEIRNSLLPFANETNSSRSTSEVNPQMLQDLQAAGFDEDMVIQALQKTNNRSIEAAIEFISKMSYQDPRREQMAAAAARPINASMKPGNVQQSVNRKQSWKGSKESLVPQRHGPPLGESVAYHSESPNSQTDVGRPLSGSGISAFVQAHPSNGQRVNPPPPPQVRSVTPPPPPRGQTPPPRGTTPPPPSWEPNSQTKRYSGNMEYVISRISPVPPGAWQEGYPPPPLNTSPMNPPNQGQRGISSVPVGRQPIIMQSSSKFNFPSGRPGMQNGTGQTDFMIHQNVVPAGTVNRQPPPPYPLTAANGQSPSALQTGGSAAPSSYTNGSIPQSMMVPNRNSHNMELYNISVPGLQTNWPQSSSAPAQSSPSSGHEIPTWQPNIPVRSNSFNNPLGNRASHSANSQPSATTVTAITPAPIQQPVKSMRVLKPELQTALAPTHPSWIPQPIQTVQPSPFPEGTASNVTVMPPVAEAPNYQGPPPPYPKHLLHQNPSVPPYESISKPSKEDQPSLPKEDESEKSYENVDSGDKEKKQITTSPITVRKNKKDEERRESRIQSYSPQAFKFFMEQHVENVLKSHQQRLHRKKQLENEMMRVGLSQDAQDQMRKMLCQKESNYIRLKRAKMDKSMFVKIKTLGIGAFGEVCLARKVDTKALYATKTLRKKDVLLRNQVAHVKAERDILAEADNEWVVRLYYSFQDKDNLYFVMDYIPGGDMMSLLIRMGIFPESLARFYIAELTCAVESVHKMGFIHRDIKPDNILIDRDGHIKLTDFGLCTGFRWTHDSKYYQSGDHPRQDSMDFSNEWGDPSSCRCGDRLKPLERRAARQHQRCLAHSLVGTPNYIAPEVLLRTGYTQLCDWWSVGVILFEMLVGQPPFLAQTPLETQMKVINWQTSLHIPPQAKLSPEASDLIIKLCRGPEDRLGKNGADEIKAHPFFKTIDFSSDLRQQSASYIPKITHPTDTSNFDPVDPDKLWSDDNEEENVNDTLNGWYKNGKHPEHAFYEFTFRRFFDDNGYPYNYPKPIEYEYINSQGSEQQSDEDDQNTGSEIKNRDLVYV
# B2: Merlin (Homo sapiens), P35240 (parent)
# chain: MAGAIASRMSFSSLKRKQPKTFTVRIVTMDAEMEFNCEMKWKGKDLFDLVCRTLGLRETWFFGLQYTIKDTVAWLKMDKKVLDHDVSKEEPVTFHFLAKFYPENAEEELVQEITQHLFFLQVKKQILDEKIYCPPEASVLLASYAVQAKYGDYDPSVHKRGFLAQEELLPKRVINLYQMTPEMWEERITAWYAEHRGRARDEAEMEYLKIAQDLEMYGVNYFAIRNKKGTELLLGVDALGLHIYDPENRLTPKISFPWNEIRNISYSDKEFTIKPLDKKIDVFKFNSSKLRVNKLILQLCIGNHDLFMRRRKADSLEVQQMKAQAREEKARKQMERQRLAREKQMREEAERTRDELERRLLQMKEEATMANEALMRSEETADLLAEKAQITEEEAKLLAQKAAEAEQEMQRIKATAIRTEEEKRLMEQKVLEAEVLALKMAEESERRAKEADQLKQDLQEAREAERRAKQKLLEIATKPTYPPMNPIPAPLPPDIPSFNLIGDSLSFDFKDTDMKRLSMEIEKEKVEYMEKSKHLQEQLNELKTEIEALKLKERETALDILHNENSDRGGSSKHNTIKKLTLQSAKSRVAFFEEL
# partner: B1 chain
# B3: Serine/threonine-protein kinase Warts (Drosophila melanogaster (Fruit fly)), Q9VA38 (parent)
# chain: MHPAGEKRGGRPNDKYTAEALESIKQDLTRFEVQNNHRNNQNYTPLRYTATNGRNDALTPDYHHAKQPMEPPPSASPAPDVVIPPPPAIVGQPGAGSISVSGVGVGVVGVANGRVPKMMTALMPNKLIRKPSIERDTASSHYLRCSPALDSGAGSSRSDSPHSHHTHQPSSRTVGNPGGNGGFSPSPSGFSEVAPPAPPPRNPTACSAATPPPPVPPTSQAYVKRRSPALNNRPPAIAPPTQRGNSPVITQNGLKNPQQQLTQQLKSLNLYPGGGSGAVVEPPPPYLIQGGAGGAAPPPPPPSYTASMQSRQSPTQSQQSDYRKSPSSGIYSATSAGSPSPITVSLPPAPLAKPQPRVYQARSQQPIIMQSVKSTQVQKPVLQTAVAPQSPSSASASNSPVHVLAAPPSYPQKSAAVVQQQQQAAAAAHQQQHQHQQSKPPTPTTPPLVGLNSKPNCLEPPSYAKSMQAKAATVVQQQQQQQQQQQQVQQQQVQQQQQQQQQQLQALRVLQAQAQRERDQRERDQRERERDQQKLANGNPGRQMLPPPPYQSNNNNNSEIKPPSCNNNNIQISNSNLATTPPIPPAKYNNNSSNTGANSSGGSNGSTGTTASSSTSCKKIKHASPIPERKKISKEKEEERKEFRIRQYSPQAFKFFMEQHIENVIKSYRQRTYRKNQLEKEMHKVGLPDQTQIEMRKMLNQKESNYIRLKRAKMDKSMFVKLKPIGVGAFGEVTLVSKIDTSNHLYAMKTLRKADVLKRNQVAHVKAERDILAEADNNWVVKLYYSFQDKDNLYFVMDYIPGGDLMSLLIKLGIFEEELARFYIAEVTCAVDSVHKMGFIHRDIKPDNILIDRDGHIKLTDFGLCTGFRWTHNSKYYQENGNHSRQDSMEPWEEYSENGPKPTVLERRRMRDHQRVLAHSLVGTPNYIAPEVLERSGYTQLCDYWSVGVILYEMLVGQPPFLANSPLETQQKVINWEKTLHIPPQAELSREATDLIRRLCASADKRLGKSVDEVKSHDFFKGIDFADMRKQKAPYIPEIKHPTDTSNFDPVDPEKLRSNDSTMSSGDDVDQNDRTFHGFFEFTFRRFFDDKQPPDMTDDQAPVYV
# partner: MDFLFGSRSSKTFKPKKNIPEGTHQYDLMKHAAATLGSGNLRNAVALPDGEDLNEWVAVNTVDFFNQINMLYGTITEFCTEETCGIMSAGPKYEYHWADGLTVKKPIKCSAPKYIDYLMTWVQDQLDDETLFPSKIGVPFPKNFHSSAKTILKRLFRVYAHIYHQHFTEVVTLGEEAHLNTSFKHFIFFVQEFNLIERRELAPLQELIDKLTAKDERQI
# B4: Serine/threonine-protein kinase Warts (Drosophila melanogaster (Fruit fly)), Q9VA38 (parent)
# chain: B3 chain
# partner: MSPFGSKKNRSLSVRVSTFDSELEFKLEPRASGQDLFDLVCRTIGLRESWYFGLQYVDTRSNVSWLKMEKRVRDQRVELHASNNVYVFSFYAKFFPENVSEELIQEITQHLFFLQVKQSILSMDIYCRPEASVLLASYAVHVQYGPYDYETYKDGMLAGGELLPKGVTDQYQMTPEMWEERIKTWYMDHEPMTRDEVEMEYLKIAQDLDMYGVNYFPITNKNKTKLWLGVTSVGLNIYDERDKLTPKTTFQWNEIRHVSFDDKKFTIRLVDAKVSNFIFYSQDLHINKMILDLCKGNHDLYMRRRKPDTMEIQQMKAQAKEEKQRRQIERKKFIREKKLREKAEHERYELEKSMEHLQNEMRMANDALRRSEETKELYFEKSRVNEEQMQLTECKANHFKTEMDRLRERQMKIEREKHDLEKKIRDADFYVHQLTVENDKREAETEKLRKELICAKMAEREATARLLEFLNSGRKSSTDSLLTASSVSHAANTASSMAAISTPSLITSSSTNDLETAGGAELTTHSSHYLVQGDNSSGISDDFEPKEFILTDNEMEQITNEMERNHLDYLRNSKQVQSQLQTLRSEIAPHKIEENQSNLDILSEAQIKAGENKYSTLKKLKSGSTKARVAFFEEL
# Variants of: B1
# Settings: with merl_human NF2, P35240
row,Variant,effect of a mutation on the interaction
1,A77P;I81T;L85P,disrupting interaction strength

# Variants of: B1
# Settings: with NF2, P35240-1
row,Variant,effect of a mutation on the interaction
1,A77P;I81T;L85P,disrupting interaction strength

# Variants of: B2
# Settings: with lats1_human LATS1, O95835
row,Variant,effect of a mutation on the interaction
1,MAGAIASRMSFSSLKRKQPKTFTVRIVTMDAEMEFNCEMKWKGKDLFDLVCRTLGLRETWFSGLQYTIKDTVAWLKMDKKVLDHDVSKEEPVTFHFLAKFYPENAEEELVQEITQHLFFLQVKKQILDEKIYCPPEASVLLASYAVQAKYGDYDPSVHKRGFLAQEELLPKRVINLYQMTPEMWEERITAWYAEHRGRARDEAEMEYLKIAQDLEMYGVNYFAIRNKKGTELLLGVDALGLHIYDPENRLTPKISFPWNEIRNISYSDKEFTIKPLDKKIDVFKFNSSKLRVNKLILQLCIGNHDLFMRRRKADSLEVQQMKAQAREEKARKQMERQRLAREKQMREEAERTRDELERRLLQMKEEATMANEALMRSEETADLLAEKAQITEEEAKLLAQKAAEAEQEMQRIKATAIRTEEEKRLMEQKVLEAEVLALKMAEESERRAKEADQLKQDLQEAREAERRAKQKLLEIATKPTYPPMNPIPAPLPPDIPSFNLIGDSLSFDFKDTDMKRLSMEIEKEKVEYMEKSKHLQEQLNELKTEIEALKLKERETALDILHNENSDRGGSSKHNTIKKLTLQSAKSRVAFFEEL [F62S],disrupting interaction strength
2,MAGAIASRMSFSSLKRKQPKTFTVRIVTMDAEMEFNCEMKWKGKDRFDLVCRTLGLRETWFFGLQYTIKDTVAWLKMDKKVLDHDVSKEEPVTFHFLAKFYPENAEEELVQEITQHLFFLQVKKQILDEKIYCPPEASVLLASYAVQAKYGDYDPSVHKRGFLAQEELLPKRVINLYQMTPEMWEERITAWYAEHRGRARDEAEMEYLKIAQDLEMYGVNYFAIRNKKGTELLLGVDALGLHIYDPENRLTPKISFPWNEIRNISYSDKEFTIKPLDKKIDVFKFNSSKLRVNKLILQLCIGNHDLFMRRRKADSLEVQQMKAQAREEKARKQMERQRLAREKQMREEAERTRDELERRLLQMKEEATMANEALMRSEETADLLAEKAQITEEEAKLLAQKAAEAEQEMQRIKATAIRTEEEKRLMEQKVLEAEVLALKMAEESERRAKEADQLKQDLQEAREAERRAKQKLLEIATKPTYPPMNPIPAPLPPDIPSFNLIGDSLSFDFKDTDMKRLSMEIEKEKVEYMEKSKHLQEQLNELKTEIEALKLKERETALDILHNENSDRGGSSKHNTIKKLTLQSAKSRVAFFEEL [L46R],disrupting interaction strength
3,MAGAIASRMSFSSLKRKQPKTFTVRIVTMDAEMEFNCEMKWKGKDLFDLVCRTLGLRETWFFGPQYTIKDTVAWLKMDKKVLDHDVSKEEPVTFHFLAKFYPENAEEELVQEITQHLFFLQVKKQILDEKIYCPPEASVLLASYAVQAKYGDYDPSVHKRGFLAQEELLPKRVINLYQMTPEMWEERITAWYAEHRGRARDEAEMEYLKIAQDLEMYGVNYFAIRNKKGTELLLGVDALGLHIYDPENRLTPKISFPWNEIRNISYSDKEFTIKPLDKKIDVFKFNSSKLRVNKLILQLCIGNHDLFMRRRKADSLEVQQMKAQAREEKARKQMERQRLAREKQMREEAERTRDELERRLLQMKEEATMANEALMRSEETADLLAEKAQITEEEAKLLAQKAAEAEQEMQRIKATAIRTEEEKRLMEQKVLEAEVLALKMAEESERRAKEADQLKQDLQEAREAERRAKQKLLEIATKPTYPPMNPIPAPLPPDIPSFNLIGDSLSFDFKDTDMKRLSMEIEKEKVEYMEKSKHLQEQLNELKTEIEALKLKERETALDILHNENSDRGGSSKHNTIKKLTLQSAKSRVAFFEEL [L64P],disrupting interaction strength
4,MAGAIASRMSFSSLKRKQPKTFTVRIVTMDAEMEFNCEMKWKGKDLFDLVCRTLGLRETWFFGLQYTIKDTVAWLKMDKKVLDHDVSKEEPVTFHFLAKFYPENAEEELVQEITQHLFFLQVKKQILDEKIYCPPEASVLPASYAVQAKYGDYDPSVHKRGFLAQEELLPKRVINLYQMTPEMWEERITAWYAEHRGRARDEAEMEYLKIAQDLEMYGVNYFAIRNKKGTELLLGVDALGLHIYDPENRLTPKISFPWNEIRNISYSDKEFTIKPLDKKIDVFKFNSSKLRVNKLILQLCIGNHDLFMRRRKADSLEVQQMKAQAREEKARKQMERQRLAREKQMREEAERTRDELERRLLQMKEEATMANEALMRSEETADLLAEKAQITEEEAKLLAQKAAEAEQEMQRIKATAIRTEEEKRLMEQKVLEAEVLALKMAEESERRAKEADQLKQDLQEAREAERRAKQKLLEIATKPTYPPMNPIPAPLPPDIPSFNLIGDSLSFDFKDTDMKRLSMEIEKEKVEYMEKSKHLQEQLNELKTEIEALKLKERETALDILHNENSDRGGSSKHNTIKKLTLQSAKSRVAFFEEL [L141P],disrupting interaction strength

# Variants of: B3
# Settings: with mob1_drome mats
row,Variant,effect of a mutation on the interaction
1,R708A,disrupting interaction strength

# Variants of: B4
# Settings: with merh_drome Mer
row,Variant,effect of a mutation on the interaction
1,A20P;I24T;L28P,disrupting interaction strength
